Reference: paper PMC10329638

Target: rat ASIC3 wild type (rat) (UniProt O35240)
UniProt O35240, sequence (O35240 whole entry): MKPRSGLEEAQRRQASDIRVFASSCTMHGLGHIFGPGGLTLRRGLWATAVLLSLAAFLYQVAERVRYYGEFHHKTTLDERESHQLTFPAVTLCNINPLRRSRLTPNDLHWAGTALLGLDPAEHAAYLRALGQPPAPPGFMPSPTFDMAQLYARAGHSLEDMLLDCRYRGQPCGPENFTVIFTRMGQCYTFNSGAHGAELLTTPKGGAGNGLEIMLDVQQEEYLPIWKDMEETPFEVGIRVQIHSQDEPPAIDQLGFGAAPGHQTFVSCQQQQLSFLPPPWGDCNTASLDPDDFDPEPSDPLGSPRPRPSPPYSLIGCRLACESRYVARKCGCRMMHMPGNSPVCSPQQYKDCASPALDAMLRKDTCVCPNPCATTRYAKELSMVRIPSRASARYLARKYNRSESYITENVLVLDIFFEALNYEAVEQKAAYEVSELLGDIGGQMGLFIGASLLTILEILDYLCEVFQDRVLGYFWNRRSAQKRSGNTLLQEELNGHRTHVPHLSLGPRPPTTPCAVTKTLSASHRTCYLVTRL

rat ASIC2a-H72N (from UniProt Q62962-1 1-512) (natural protein)
proton-gated currents of Xenopus oocytes co-expressing wild-type ASIC3 and mutant ASIC2a (two-electrode voltage clamp, pH 7.0 to 3): > 1 µA
